Consider 32 sequences from the supplement of paper PMC9170038.

The data set has as its system MS2 coat protein. Put plainly: apparent KD of MS2 coat protein; designed switch direction (-1 OFF switch, 1 ON switch): -1; higher = weaker reporter binding. The gist of the method: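 Apparent KD, taken as the median over clusters for each design, was obtained by curve-fitting normalised cluster fluorescence. Designed RNA switches had been transcribed on Illumina chips by stalled E. coli RNA polymerase and titrated with SNAP-549-labelled MS2 coat protein, doubling from 0.7 or 1.5 nM to 3 µM.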

[1] abbreviates: input ligand: microRNA oligo, concentration not stated.
[2] abbreviates: Eterna round: R95, input ligand: microRNA oligo, concentration not stated.

On to “UUCCUCACUUCUUUGUCUCACAUGAGGAUCACCCAUGUAAUAUAGGAUAUGCAUAGUAUUUCUAUGCAGAAGGAUAUUAGUUUU [JR_ExcNG3_Sub087] (Eterna round: R96, puzzle: Exclusion NG 3)”, for which the “apparent KD of MS2 coat protein” value by setting is: (input ligand: FMN 200 uM) 131 nM; under setting [1], 27.3 nM; (input ligand: none) 34.7 nM.
Take “CCGCCGCAAGGAUAUACUUGCGGUGAUGUUCGAGUUCUUCUACUUGAGGAUCACCCAAGUAGAAGGUGCAAAAC [jl-ex2.4.59 ViennaUCT mod] (Eterna round: R97, puzzle: Exclusion 2)”: the “apparent KD of MS2 coat protein” value runs as follows: (input ligand: FMN 200 uM) 13 nM; (input ligand: none) 12.5 nM.
For the sequence “AGUUGUUCAGGAUAUGAUGUAUGUUACAUGAGGAUCACCCAUGUAGGUCCUGGAUAUGUAUCAGAAGGGAAUAUCU [JR_Ex5_Sub059] (Eterna round: R97, puzzle: Exclusion 5)”, the “apparent KD of MS2 coat protein” value (input ligand: FMN 200 uM) worked out at 40.8 nM and the “apparent KD of MS2 coat protein” value (input ligand: none) amounted to 32 nM.
For the sequence “CUGCUCCGUGUAGGAUAUGCAUAUUCCCAUUAUGCAGAAGGACAUGAGGAUCACCCAUGUAUGUUAUUAUCAUGUGUUGCAUGC [Design 10] (Eterna round: R96, puzzle: Exclusion NG 1)”, the “apparent KD of MS2 coat protein” value (input ligand: FMN 200 uM) worked out at 146 nM, the “apparent KD of MS2 coat protein” value under setting [1] came to 35.2 nM and the “apparent KD of MS2 coat protein” value (input ligand: none) came out at 34.3 nM.
Take “GGUGGACAUGAGGAUCACCCAUGUGAGGAUAUCGGCCGGCUAGUGGCGGCUGGCUUCACGAGAAGGCGCAUAGU [Exclusion 1 V78] (puzzle: Exclusion 1)”: the “apparent KD of MS2 coat protein” value under setting [2] is 65.4 nM.
On the same count and under the same terms, then “GGUGGACAUGAGGAUCACCCAUGUGAGGAUAUCGGCUAUCUACUCGCUGUCGGUUGCUCGAGAAGGCACAUUGU [Exclusion 1 V93] (puzzle: Exclusion 1)”, with 151 nM.
With “CAAUGUGCUGAGGAUAUCUGCAGGUUGGGCCUGGGAGAAGGCGGCACAUGAGGAUCACCCAUGUGACCGAAAUA [EX6 A.17] (Eterna round: R97, puzzle: Exclusion 6)”, the “apparent KD of MS2 coat protein” value (input ligand: FMN 200 uM) came to 78.5 nM and the “apparent KD of MS2 coat protein” value (input ligand: none) was 39.3 nM.
In the case of “CCAGCGUAUGUGAGGAUAUGCUGGUCCUUGGAUCAGCAGAAGGCACAUGAGGAUCACCCAUGUGGUGUCGUUGG [JL bmx4 3.45] (puzzle: Brourd's mod of Exclusion 4)”, the “apparent KD of MS2 coat protein” value under setting [2] came out at 149 nM.
On to “UGCCAGAAAGGAUAUACAGCCCGGGCGUUCCUGCGAUAUAUACAUGAGGAUCACCCAUGUAGAAGGUUCGGCGG [EX2 C.12] (Eterna round: R97, puzzle: Exclusion 2)”, for which the “apparent KD of MS2 coat protein” value by setting is: (input ligand: FMN 200 uM) 33.1 nM; (input ligand: none) 28.5 nM.
For “GGUCUACAUGAGGAUCACCCAUGUAAGGAUAUCGUCACUGGAGCCUCGGCUCCAGUGACGAGAAGGUACGUAAU [E1/12-A2] (Eterna round: R97, puzzle: Exclusion 1)” the same measures were 31.5 nM and 34.5 nM.
As for “UAUUAGCAAGCGAGAUCCCACAUGAGGAUCACCCAUGUGCUCGUCUUAUAAAGUACUGUGACGAAAGUCACGGUACA [Sensor 3, v1 - 91 v3] (Eterna round: R97, puzzle: Sensor, turn-off variant 1)”, the “apparent KD of MS2 coat protein” value (input ligand: FMN 200 uM) was found to be 14.3 nM and the “apparent KD of MS2 coat protein” value (input ligand: none) came out at 12.8 nM.
Regarding “UUUAUGUCAGGAUAUGAGUAGUAGAACAAUAGUACUACUACUCAGAAGGGACAUGAGGAUCACCCAUGUUCCUC [Fiskers Ex 4 Super stable 44 mod 20] (puzzle: Exclusion 4)”, under setting [2], the “apparent KD of MS2 coat protein” value was 16.7 nM.
On the same count and under the same terms, for “UACUAUAAGGAGGAUAUCGUAUCGGAGACGAUACGAGAAGGCUUAACAUGAGGAUCACCCAUGUUCUUCAAUAU [Mat - Exclusion 6 - Eli Mod - D91] (puzzle: Exclusion 6)” the value was 14.8 nM.
Turning to “AUCAGCUCGUGAGGAUAUGAACAUGAGGAUCACCCAUGUAAGAUCAAGCUGCUUCGGCAGCAAGUUCAGAAGGUACGAGCUGAU [ENG2/10-C3] (Eterna round: R96, puzzle: Exclusion NG 2)”, the “apparent KD of MS2 coat protein” value reads like this: (input ligand: FMN 200 uM) 197 nM; under setting [1], 78.1 nM; (input ligand: none) 139 nM.
In the case of “AAAUGUGCGAGAGGAUAUCGUGUACAAAGUACACGAGAAGGCUUCACAUGAGGAUCACCCAUGUACCGAGGUGAAACACCUUGA [Omei Exc(NG)1 Bv4] (Eterna round: R96, puzzle: Exclusion NG 1)”, the “apparent KD of MS2 coat protein” value (input ligand: FMN 200 uM) worked out at 599 nM, the “apparent KD of MS2 coat protein” value under setting [1] stood at 149 nM and the “apparent KD of MS2 coat protein” value (input ligand: none) was determined as 198 nM.
For “GCACGGUAAGUGAGGAUAUACCUCUGGAUACAGAGGUAGAAGGCACAUGAGGAUCACCCAUGUCUCAGCCGUGC [Fiskers BMX 4 - 87] (puzzle: Brourd's mod of Exclusion 4)”, the “apparent KD of MS2 coat protein” value under setting [2] was determined as 16.8 nM.
Consider “UACAUGAGGAUCACCCAUGUUUUGUCGUGUAUGGUAUUUAUCUAGGAUAUCAAUGUAGUUAUUUAUGAGAAGGAGAAUAUUAAU [JMF's solution 41] (Eterna round: R96, puzzle: Exclusion NG 3)”, for which the “apparent KD of MS2 coat protein” value is, setting by setting: (input ligand: FMN 200 uM) 43 nM; under setting [1], 37.5 nM; (input ligand: none) 50.8 nM.
As for “UUGAUGUCAUCAGGAUAUAGUAUUUAAGACAUAUCUUCUUUCUUACAUGAGGAUCACCCAUGUCGCUAGAAGGGAUGAAUGAUU [JR_ExcNG2_Sub086] (Eterna round: R96, puzzle: Exclusion NG 2)”, the “apparent KD of MS2 coat protein” value under setting [1] turned out to be 13.4 nM.
With “UCGGGUAGAGGAUAUACAUAGAAAUAGAUUCAUGUAAAACUACAUGAGGAUCACCCAUGUAGAAGGCUAUCCGU [Mat - Exclusion 2 - JL Mod - D56] (Eterna round: R97, puzzle: Exclusion 2)”, the “apparent KD of MS2 coat protein” value runs as follows: (input ligand: FMN 200 uM) 164 nM; (input ligand: none) 27.2 nM.
With “UUAAAUCAUGUAGGAUAUGCGUGGCGAAGCUAUGCAGAAGGACAUGAGGAUCACCCAUGUUCUAGCGUCUGAGUACAGAUGCAA [Mat - Exclusion NG 1 - Mod of JL - D2] (Eterna round: R96, puzzle: Exclusion NG 1)”, the “apparent KD of MS2 coat protein” value by setting is: (input ligand: FMN 200 uM) 244 nM; under setting [1], 17.4 nM; (input ligand: none) 18.9 nM.
As for “AGUGUGUGGCAGGAUAUGCAAUUAAUAGGUGAAGCAGAAGGGUCUACAUGAGGAUCACCCAUGUAUGCGGUUGA [Ex6 #23] (Eterna round: R97, puzzle: Exclusion 6)”, the “apparent KD of MS2 coat protein” value (input ligand: FMN 200 uM) turned out to be 297 nM and the “apparent KD of MS2 coat protein” value (input ligand: none) came to 68.5 nM.
On to “GGGUGCAGGCUGAGGUCCUACAUGAGGAUCACCCAUGUGGUCCGGUGACGUGAGUCGCCGGACUUGGCUCGUCUUGU [salish99_S_TOV1_R5_011] (Eterna round: R97, puzzle: Sensor, turn-off variant 1)”, for which the “apparent KD of MS2 coat protein” value (input ligand: FMN 200 uM) came out at 42.2 nM and the “apparent KD of MS2 coat protein” value (input ligand: none) was 52.1 nM.
Taken in the same sequence, the figures for “UUCACAUGGACAUAAGAUCACAUGAGGAUCACCCAUGUGAAUAACAAGCUUUUUGCUCGUCUUAUGUCCAAUAAUAA [Stov1/14-A1] (Eterna round: R97, puzzle: Sensor, turn-off variant 1)” were 14.1 nM and 12.2 nM.
As for “UGCAUGUGAGGAUAUGUGUACUGUUUUUUGUUUAGAUGUACACAGAAGGCACAUGAGGAUCACCCAUGUAGUAC [Ex4 - 3 - 33] (puzzle: Exclusion 4)”, the “apparent KD of MS2 coat protein” value under setting [2] was 46.1 nM.
The same measure, in the same setting: then “CAGUACUGAGGAUAUACAUGAGGAUCACCCAUGUGUCUAAAGUAGGAUACUACUAUUAGUAGAAGGCAGUACUG [Fiskers Ex 3 828 mod 20] (puzzle: Exclusion 3)”, with 11.3 nM.
Consider “ACGGUUCUCCUCAGCUACAUGAGGAUCACCCAUGUGACUGAGCAGGAUAUACAUAAGUGCGAAAAGUAGAAGGGCUCGGCGCAC [Xeora] (Eterna round: R96, puzzle: Exclusion NG 3)”, for which the “apparent KD of MS2 coat protein” value reads like this: (input ligand: FMN 200 uM) 12.2 nM; under setting [1], 8.75 nM; (input ligand: none) 12.7 nM.
Regarding “GGGCCCGGAGGAUAUACAAUCCCGGGUUGAAAGGCCCGGGUACAUGAGGAUCACCCAUGUAGAAGGCCGGGCCC [-42.3, -39.6 kcal A 24%, 5c bis,0] (Eterna round: R97, puzzle: Exclusion 2)”, the “apparent KD of MS2 coat protein” value was 20.9 nM (input ligand: FMN 200 uM) and 13.8 nM (input ligand: none).
With “UUCUACAAGCUGAGAUCCUACAUGAGGAUCACCCAUGUGGUCCGGAACAUUCUGUCACCGGAUCUUGCUCGUCUUGU [salish99_S_TOV1_R5_104] (Eterna round: R97, puzzle: Sensor, turn-off variant 1)”, the “apparent KD of MS2 coat protein” value (input ligand: FMN 200 uM) came to 41.9 nM and the “apparent KD of MS2 coat protein” value (input ligand: none) is 48.4 nM.
As to “AGCUGUGGCCGAGGAUAUGACAUGAGGAUCACCCAUGUACCAGAUUAGGCCUGGUAACAGGCUCAUCAGAAGGCGGUCUCAGCA [Eli eng2 - 016] (Eterna round: R96, puzzle: Exclusion NG 2)”, the “apparent KD of MS2 coat protein” value by setting is: (input ligand: FMN 200 uM) 13.5 nM; under setting [1], 10.7 nM; (input ligand: none) 14.8 nM.
For “UAUAUAUAGUAAGGAUAUGUAUUUAUCUUAUAAACAGAAGGUACUGACAUGAGGAUCACCCAUGUUUUAGUGUGGGCAUGUAGA [JMF's solution 17] (Eterna round: R96, puzzle: Exclusion NG 1)” the same measures were 59.9 nM, 39 nM and 41.8 nM.
Consider “CUUUUGUGAGGAUAUCAGUAGUAAAAUAAUAAAAUUACUACUGAGAAGGCACAUGAGGAUCACCCAUGUUCCUC [salish99_ex4_r3_019] (puzzle: Exclusion 4)”, for which, under setting [2], the “apparent KD of MS2 coat protein” value stood at 36.4 nM.
As for “CUAGUCCGAGGAUAUAUUAAGUGAUACAUGAGGAUCACCCAUGUAAUUUAAUGGAAAUAAAUAGAAGGCGGACUAG [Mat - Exclusion 5 - JL mod - D52] (puzzle: Exclusion 5)”, the “apparent KD of MS2 coat protein” value is, setting by setting: (Eterna round: R95, input ligand: FMN 200 uM) 44.7 nM; under setting [2], 46.2 nM; (Eterna round: R95, input ligand: none) 53.3 nM.
